Assay results as given in patent publication US6866854 (TRUSTEES OF COLUMBIA UNIVERSITY IN THE CITY OF NEW YORK, dated 2005).

Target: T1, LANA2 fused to GAL4-AD (plasmid pGAD424) (Kaposi's sarcoma-associated herpesvirus …, UniProt F5HIC6 1-566)
T1 sequence: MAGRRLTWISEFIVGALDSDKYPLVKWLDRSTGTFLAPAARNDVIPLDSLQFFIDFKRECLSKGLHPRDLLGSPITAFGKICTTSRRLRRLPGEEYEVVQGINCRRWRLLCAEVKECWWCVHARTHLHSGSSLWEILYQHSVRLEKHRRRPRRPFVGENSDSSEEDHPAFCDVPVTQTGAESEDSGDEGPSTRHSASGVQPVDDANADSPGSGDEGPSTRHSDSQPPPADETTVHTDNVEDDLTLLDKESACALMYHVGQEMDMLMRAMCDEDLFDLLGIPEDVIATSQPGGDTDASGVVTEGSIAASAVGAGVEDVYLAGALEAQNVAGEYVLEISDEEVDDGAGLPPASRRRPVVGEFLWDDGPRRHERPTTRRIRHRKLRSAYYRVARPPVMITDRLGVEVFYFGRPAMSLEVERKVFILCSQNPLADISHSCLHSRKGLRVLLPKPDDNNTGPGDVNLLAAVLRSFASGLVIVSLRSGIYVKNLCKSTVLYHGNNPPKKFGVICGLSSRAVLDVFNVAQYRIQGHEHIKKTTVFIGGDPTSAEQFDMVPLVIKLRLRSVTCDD
Experiment: yeast two-hybrid assay, strain Y-190, b-galactosidase

B1: murine p53 fused to GAL4 DNA-binding domain (DNA-BD/murine p53 fusion protein PVA3) (other)
chain: MKLLSSIEQACDICRLKKLKCSKEKPKCAKCLKNNWECRYSPKTKRSPLTRAHLTEVESRLERLEQLFLLIFPREDLDMILKMDSLQDIKALLTGLFVQDNVNKDAVTDRLASVETDMPLTLRQHRISATSSSEESSNKGQRQLTVSPVTETPGPVAPAPATPWPLSSFVPSQKTYQGNYGFHLGFLQSGTAKSVMCTYSPPLNKLFCQLAKTCPVQLWVSATPPAGSRVRAMAIYKKSQHMTEVVRRCPHHERCSDGDGLAPPQHLIRVEGNLYPEYLEDRQTFRHSVVVPYEPPEAGSEYTTIHYKYMCNSSCMGGMNRRPILTIITLEDSSGNLLGRDSFEVRVCACPGRDRRTEEENFRKKEVLCPELPPGSAKRALPTCTSASPPQKKKPLDGEYFTLKIRGRKRFEMFRELNEALELKDAHATEESGDSRAHSSYLKTKKGQSTSRHKKTMVKKVGPDSD
notes: also called p53 into the Gal4-BD cassette
binding result: no binding
